The text below walks through data of article PMC9867979, “Pab1 acetylation at K131 decreases stress granule formation in Saccharomyces cerevisiae”.

The series deals with Pab1 RRM1-RRM2 (Saccharomyces cerevisiae, UniProt P04147 38-203). Put plainly: EMSA; protein titration up to 5000 nM; EMSA: 1x binding buffer (from 5x: 50 mM Tris-HCl pH 7.5, 750 mM KCl, 0.5 mM EDTA, 0.5 mM DTT) = 10 mM Tris-HCl, 150 mM KCl, 0.1 mM EDTA, 0.1 mM DTT, plus protein buffer (20 mM Tris-HCl pH 7.4, 100 mM KOAc, 2 mM MgOAc, 10% glycerol); 20 ul, 30 C, 30 min; 10% native PAGE, 0.4x TBE, 4 C. The conditions noted are these: protein: recombinant; tags: GST (pGEX-4T-1), removed with thrombin; label: Cy5 at both ends (as named); single strand. A general note: Mobility shift assays separate free from complexed probe on a gel.
Pab1 RRM1-RRM2, sequence (P04147 38-203): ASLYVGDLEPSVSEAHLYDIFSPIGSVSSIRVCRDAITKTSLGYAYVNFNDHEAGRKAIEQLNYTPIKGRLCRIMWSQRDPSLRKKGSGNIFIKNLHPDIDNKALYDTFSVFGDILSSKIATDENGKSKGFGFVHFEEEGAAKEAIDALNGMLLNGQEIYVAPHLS

As to AAAAAAAAAAAAAAAAAAAA (ssRNA) [Cy5-Poly(A)20-Cy5], the binding result is on record as “binds”.
